Among the data in a protein production outcome set (Wang et al. 2014) are protein production values, retold here.

This data set is described as follows: label from the status in PepcDB records.
As to “MRTPCSQHRRDRPSAIGSQLPDADTLDTRQPPLQEIPISSFADKTFTAPAQIRNFCIIAHIDHGKSTLADRMLQLTGVVDERSMRAQYLDRMDIERERGITIKAQNVRLPWRVDKTDYVLHLIDTPGHVDFTYEVSRALEACEGAVLLVDAAQGIEAQTLANLYLALDRDLHIIPVLNKIDLPAADPDRYAAEMAHIIGCEPAEVLRVSGKTGEGVSDLLDEVVRQVPPPQGDAEAPTRAMIFDSVYDIYRGVVTYVRVVDGKISPRERIMMMSTGATHELLEVGIVSPEPKPCEGLGVGEVGYLITGVKDVRQSKVGDTVTSLSRARGAAAEALTGYREPKPMVYSGLYPVDGSDYPNLRDALDKLQLNDAALTYEPETSVALGFGFRCGFLGLLHMEITRERLEREFGLDLISTSPNVVYRVHKDDGTEIRVTNPSDWPEGKIRTVYEPVVKTTIIAPSEFIGTIMELCQSRRGELGGMDYLSPERVELRYTMPLGEIIFDFFDALKSRTRGYASLDYEEAGEQEAALVKVDILLQGEAVDAFSAIVHKDTAYAYGNKMTTKLKELIPRQQFEVPVQAAIGSKIIARENIRAIRKDVLSKCYGGDITRKRKLLEKQKEGKKRMKTIGRVEVPQEAFVAALSTDAAGDKGKK”, the protein production result is “failed”.

For the sequence “MRVDELRVDERIKSTLKERGIESFYPPQAEALKSGILEGKNALISIPTASGKTLIAEIAMVHRILTQGGKAVYIVPLKALAEEKFQEFQDWEKIGLRVAMATGDYDSKDEWLGKYDIIIATAEKFDSLLRHGSSWIKDVKILVADEIHLIGSRDRGATLEVILAHMLGKAQIIGLSATIGNPEELAEWLNAELIVSDWRPVKLRRGVFYQGFVTWEDGSIDRFSSWEELVYDAIRKKKGALIFVNMRRKAERVALELSKKVKSLLTKPEIRALNELADSLEENPTNEKLAKAIRGGVAFHHAGLGRDERVLVEENFRKGIIKAVVATPTLSAGINTPAFRVIIRDIWRYSDFGMERIPIIEVHQMLGRAGRPKYDEVGEGIIVSTSDDPREVMNHYIFGKPEKLFSQLSNESNLRSQVLALIATFGYSTVEEILKFISNTFYAYQRKDTYSLEEKIRNILYFLLENEFIEISLEDKIRPLSLGIRTAKLYIDPYTAKMFKDKMEEVVKDPNPIGIFHLISLTPDITPFNYSKREFERLEEEYYEFKDRLYFDDPYISGYDPYLERKFFRAFKTALVLLAWINEVPEGEIVEKYSVEPGDIYRIVETAEWLVYSLKEIAKVLGAYEIVDYLETLRVRVKYGIREELIPLMQLPLVGRRRARALYNSGFRSIEDISQARPEELLKIEGIGVKTVEAIFKFLGKNVKISEKPRKSTLDYFLKS”, the protein production entry was “failed”.

With “MRVHPDRGRTNLPPFKLRSSRSTYKALKEKANGDALTNAGDRSIFVPDGICQGKAAERCQKTRQRGVRSVKNLIVKIAAAALLVLAPAIAQAAEGYSTANVNMRAGPSTRYPAVAVIPAGSSVEIRGCLSNVNWCDVEFYGGRGWVSGQYVQAVYEQRRVYVGPQYYRPLGIPMVTFSVGNYWDRYYRGRDFYRERDRWSRGPDYYYRDRDYRDRDYRREYRDRDYQVREYRDRDRDRRDDARREERRREVRRDDDNRSSDFRDLPQFRGGKADTYNHPDPRASPFVCRPGDPSCGD”, the protein production result is listed as “failed”.

With “MRVKTIMTQNPVTITLPATRNYALELFKKYKVRSFPVVNKEGKLVGIISVKRILVNPDEEQLAMLVKRDVPVVKENDTLKKAAKLMLEYDYRRVVVVDSKGKPVGILTVGDIIRRYFAKSEKYKGVEIEPYYQRYVSIVWEGTPLKAALKALLLSNSMALPVVDSEGNLVGIVDETDLLRDSEIVRIMKSTELAASSEEEWILESHPTLLFEKFELQLPNKPVAEIMTRDVIVATPHMTVHEVALKMAKYSIEQLPVIRGEGDLIGLIRDFDLLKVLVKSKA”, the protein production result was “not failed”.

With “MRVLETIVALREYRKSLEESVGFVPTMGALHKGHQSLIERSLKENSHTIVSVFVNPTQFGANEDFNAYPRPLEKDLALCEKLGVNAVFVPKIGEMYPYEAEQRLKLYAPKFLSSSLEGAMRKGHFDGVVQIVLKMFHLVNPTRAYFGKKDAQQLLIIEHLVKDLLLDIEIAPCEIVRDDDNLALSSRNVYLNATQRKQALAIPKALEKIQQAIDKGEKACEKLKKLGLEILETLEVDYLECCNHKLEPLTIIEPTNTLILVAARVGKTRLLDNLWV”, the protein production entry is “failed”.

As to “MRVLPLLLLIYPFAEIAALVALADRIGGLAVFLLVLLSSMLGLWMLRNQKLGALLTLGSVMRQGDKVSLYSLLWPLRYALAGLLFLLPGLLSDVAAVLLLLPLKGPDISLRATGAGPAAGPAGGSDIIEGEFSRVDETTPPGRRIQ”, the protein production entry is given as “failed”.

As to “MRVNILMSTYNGEKFVADQIESIQKQTYTDWNLIIRDDGSSDRTCEIVDDFVSKDNRIKLIRAENVGVIKSFHELVTDSNNADFYFFADQDDYWLPEKLSVMLEETKKHDNSKPVMYYTDLKVTDRNLNVTSESMIRGQSDHANTKLVQELTENTVTGGASMINHELAQLWQSTNDIIMHDWYLAIVAAALGELVYIDQPTHLYRQHDSNVLGARTLSKRIKKWIHPNLWFEKYWWLITASQKQAQKLLTENLSLMSEDDKALVSDYVNILKQPKAERRQILDRYNLRKNKNYHTSIFRTLIITKFAYKGKKTNEFLQP”, the protein production result is recorded as “failed”.

As to “MRVSCVYATASRWGGPPVASEVRGDAAISTTPDAAPGLAARRRRILFVAEAVTLAHVVRPFALAQSLDPSRYEVHFACDPRYNQLLGPLPFRHHAIHTIPSERFFGNLTQGRFYAMRTLRKYVEADLRVLDEIAPDLVVGDLRISLSVSARLAGIPYIAIANAYWSPYAQRRFPLPDVIWTRLFGVRLVKLLYRLERPLLFALQCMPLNWVRRRHGLSSLGWNLCRIFTDGDHTLYADVPELMPTYDLPANHEYLGPVLWSPAGKPPTWWDSLPTDRPIVYATLGTSGGRNLLQLVLNALAELPVTVIAATAGRSDLKTVPANAFVADYLPGEAAAARSAVVVCNGGSLTTQQALVAGVPVIGVAGNLDQHLNMEAVERAGAGVLLRTERLKSQRVAGAVMQVISRSEYRQAAARLADAFGRDRVGFPQHVENALRLMPENRPRTWLAS”, the protein production entry is on record as “failed”.

“MRVSMTLFRSKENHRMLNNFAKLNGGDDVRMGADVPADALVDRLLVGFFYGPSDRLPEVLHVSNQLVRTKESYPFLPFCASQSHIWKPGDPLRHLEPFTLNPWCIIPYVNPRSQDFPFPELNEIKSQQLYFDHLLGIKKLPTMTLDVPKSHHFQPKLSRLKTHHNFPYLADFVIKVPTTIFSFIVAISLLL”: the protein production entry is “failed”.

In the case of “MRVVLQMAPPIASGRGGQGLITCPGHKERRVASLNRIAMARSSRRMIKDLGPEGLEVAEISGKWGQQFPFRSYRRFIYPEYDICAGPYCDAAGEIEQFDLILANQVWEHLDRPYEATLNVLEMLRTGGHFWLAVPFFVPFHAAPMDNSRWSARGLRNFLIECGFAEEEIRAEQWGNRHAALRNLERPWPPVYDPETDPLDNDPDFPICAWAIARKT”, the protein production result was “failed”.

As to “MRWFILCLRKYVDFKGRARRKEFWLFTLFYLIALVIPPAVIIPIAVIYRHTIDIALCIRICVVVEILVIFSLLLPAYAVTVRRLHDTNRSGLWVIASIVPRVLAEGLGVIFGQKWLIQIAEGEFPTLLLINMFLLLIDLCVSILILVMMCERGTEGENRFGPDPLSDGREVLMEPEPGK”, the protein production result is recorded as “failed”.

As to “MRWILFILFCLLGAPAHAVSIPGVTTTTTTDSTTEPAPEPDIEQKKAAYGALADVLDNDTSRKELIDQLRTVAATPPAEPVPKIVPPTLVEEQTVLQKVTEVSRHYGEALSARFGQLYRNITGSPHKPFNPQTFSNALTHFSMLAVLVFGFYWLIRLCALPLYRKMGQWARQKNRERSNWLQLPAMIIGAFIIDLLLLALTLFVGQVLSDNLNAGSRTIAFQQSLFLNAFALIEFFKAVLRLIFCPNVAELRPFTIQDESARYWSRRLSWLSSLIGYGLIVAVPIISNQVNVQIGALANVIIMLCMTVWALYLIFRNKKEITQHLLNFAEHSLAFFSLFIRAFALVWHWLASAYFIVLFFFSLFDPGNSLKFMMGATVRSLAIIGIAAFVSGMFSRWLAKTITLSPHTQRNYPELQKRLNGWLSAALKTARILTVCVAVMLLLSAWGLFDFWNWLQNGAGQKTVDILIRIALILFFSAVGWTVLASLIENRLASDIHGRPLPSARTRTLLTLFRNALAVIISTITIMIVLSEIGVNIAPLLAGAGALGLAISFGSQTLVKDIITGVFIQFENGMNTGDLVTIGPLTGTVERMSIRSVGVRQDTGAYHIIPWSSITTFANFVRGIGSVVANYDVDRHEDADKANQALKDAVAELMENEEIRGLIIGEPNFAGIVGLSNTAFTLRVSFTTLPLKQWTVRFALDSQVKKHFDLAGVRAPVQTYQVLPAPGATPAEPLPPGEPTL”, the protein production result is reported as “failed”.

“MRWITRPGWPGNLLALAAGGLTTLALAPFDFWPLVLVSVAMFYLGLRELSPRQALARGWCYGFGLYGAGTSWIYVSIHTYGGASALLAGLLMLLFIAAIALFFALPAWVWARWLRRNEAPLADSLAFAALWLWQEAFRGWFLTGFPWLYSGYSQLDAPLAGLAPVGGVWLISFALGLTAALLCNLHRLRARKSFLAMGVLLLLAPWVAGLALKDHAWTSPSGPPLKVAAMQGNIEQSMKWDPQKLNDQLALYRDMTFRSQQADLIVWPETAVPVLKESAEGYLSMMGKFAADRGAALITGVPVREPTGRGEYSYYNGITVTGQGDGTYFKQKLVPFGEYVPLQDLLRGLISFFDLPMSDFARGPNDQALLQAKGYHIAPFICYEVVYPEFAAGLSAQSDLLLTVSNDTWFGTSIGPLQHLQMAQMRALEAGRWMIRATNNGVTALIDPFGRITVQIPQFERGVLYGEVVPMHELTPYLHWRSWPLAIVCLLLFGWALLAARISKTV”: the protein production entry is listed as “failed”.

As for “MRWKLRTAGGLTALALLGGALAGPAARAAEQGSDRLGDLVNPFIGTQNEGNTYPGAAVPFGMVQLSPDTGHNTGYDYTQNHIRGFSLVHLSGVGCRIGGDLPVLPTTGDVTETDYAKYAAGFSHDSERASPGYYRVGLDSGIVAELTATGRTGVQRYTFPATDKANVLLNAGQALHKTVSTDVEVLDDRTVRTRISGSGFCRDTGPYTVYTITRFDRPFTAYGTWHGGTVTEGSAESAAGTGRNGAYARFDATEDRTVEATTALSYVDARGAEVNLRSAEGRSFADVREAARRSWEDRLDDVRVRGGSDTLRRTFYSSLYRSFLAPNIGSDADGRYTGWDHRIHRARGFTYYQNWSLWDTYRTQCQLLALLAPRESRDMAISVLKIDEDGGWLPKWGYGTVETNIMSGDPVTPFLTNAYQQGLLKGYEEQAYRALAKNADGLPPAAYPGVGRDGNREYIADGFVPYIKGGPHAKPGDSDYAHGASATMEYALSDAMLSRMARDLGHDADAERYTARSRNYRTLFDASTGFFRARDTSGAFAGPADPADSEGFHEGTAWQYQWLVPQDLPGLVDLIGGKQAANDRLDAFFAYEQLLQDPARTAREVWVDGPYEYYNSDKYNPQNEPDLIAPYTYLSTGQPWKTTDVVHAALTLFTDTPTGMTGNDDLGTMSAWHVLSSIGLFPVQPGYDTWGLSTPVFERVDLRLDRGYYPRGTLTVTAPGTSDRDRYIQSVRVDGASHDRTYLTTRVLRGLEALHFAVGARPSAWGTAPHAAPPALK”, the protein production entry is “failed”.

With “MRYLADHDDLTGLHNRRALLQHLDQRLAPGQPGPVAALFLDLDRLKAINDYLGHAAGDQFIHVFAQRIGDALVGESLIARLGGDEFVLIPASPMSADAAQPLAERLRDQLKDHVAIGGEVLTRTVSIGVASGTPGQHTLEHHHHHH”, the protein production entry is listed as “not failed”.
